Test results reported in the supplement of paper PMC9112550, “Optimization of the antimicrobial peptide Bac7 by deep mutational scanning” (BMC Biology, 2022).

System: Escherichia coli TOP10
Test: shrunken log2 fold change of peptide-encoding DNA abundance (4.5 h post-induction vs induction); higher = less antimicrobial activity (less host growth inhibition)
Conditions: time post-induction: 4.5 h; library: site-saturation at positions 5, 18, 19, 20
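Note: peptides expressed intracellularly from a pBAD plasmid library in pooled LB shake-flask culture, induced with 0.3% L-arabinose, DNA abundance read by NGS, three biological replicates, DESeq2 with apeglm shrinkage.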

RRIRIRPPRLPRPRPRPCTLPRP
shrunken log2 fold change: -1.08

RRIRPRPPRLPRPRPRPLHCPRP
shrunken log2 fold change: -0.382

RRIRKRPPRLPRPRPRPPINPRP
shrunken log2 fold change: -0.0392

RRIRNRPPRLPRPRPRPVTLPRP
shrunken log2 fold change: -0.3

RRIRGRPPRLPRPRPRPATQPRP
shrunken log2 fold change: 0.631

RRIRMRPPRLPRPRPRPCHFPRP
shrunken log2 fold change: -0.0459

RRIRCRPPRLPRPRPRPSYFPRP
shrunken log2 fold change: -0.193

RRIRIRPPRLPRPRPRPRIPPRP
shrunken log2 fold change: -0.324

RRIRQRPPRLPRPRPRPNVVPRP
shrunken log2 fold change: 0.0298

RRIRFRPPRLPRPRPRPRFCPRP
shrunken log2 fold change: 0.00666

RRIRKRPPRLPRPRPRPTQNPRP
shrunken log2 fold change: 1.07

RRIRTRPPRLPRPRPRPDEMPRP
shrunken log2 fold change: -0.023

RRIRTRPPRLPRPRPRPKQSPRP
shrunken log2 fold change: 0.113

RRIRTRPPRLPRPRPRPYKEPRP
shrunken log2 fold change: -0.228

RRIRVRPPRLPRPRPRPGCMPRP
shrunken log2 fold change: -0.076

RRIRHRPPRLPRPRPRPCKNPRP
shrunken log2 fold change: -0.444

RRIRVRPPRLPRPRPRPENDPRP
shrunken log2 fold change: -0.0879

RRIRFRPPRLPRPRPRPIKVPRP
shrunken log2 fold change: -0.379

RRIRMRPPRLPRPRPRPCHHPRP
shrunken log2 fold change: -0.353

RRIRYRPPRLPRPRPRPKTCPRP
shrunken log2 fold change: -0.0102

RRIRTRPPRLPRPRPRPKYKPRP
shrunken log2 fold change: -0.407

RRIRTRPPRLPRPRPRPLSMPRP
shrunken log2 fold change: -0.238

RRIRPRPPRLPRPRPRPYHNPRP
shrunken log2 fold change: -0.785

RRIRMRPPRLPRPRPRPNPAPRP
shrunken log2 fold change: 0.201

RRIRSRPPRLPRPRPRPYCQPRP
shrunken log2 fold change: -0.164

RRIRKRPPRLPRPRPRPRKRPRP
shrunken log2 fold change: 1.04

RRIRRRPPRLPRPRPRPYMEPRP
shrunken log2 fold change: -0.0924

RRIRMRPPRLPRPRPRPHESPRP
shrunken log2 fold change: 0.432

RRIRFRPPRLPRPRPRPEIHPRP
shrunken log2 fold change: -0.227

RRIRRRPPRLPRPRPRPLLSPRP
shrunken log2 fold change: 0.148

RRIRHRPPRLPRPRPRPEARPRP
shrunken log2 fold change: 0.192

RRIRIRPPRLPRPRPRPTNWPRP
shrunken log2 fold change: -0.128

RRIRIRPPRLPRPRPRPGRTPRP
shrunken log2 fold change: 0.0928

RRIRQRPPRLPRPRPRPVHQPRP
shrunken log2 fold change: -0.104

RRIRRRPPRLPRPRPRPKVVPRP
shrunken log2 fold change: 0.0343

RRIRLRPPRLPRPRPRPKTIPRP
shrunken log2 fold change: -0.109

RRIRGRPPRLPRPRPRPGAVPRP
shrunken log2 fold change: 0.961

RRIRQRPPRLPRPRPRPWLFPRP
shrunken log2 fold change: 0.0523

RRIRCRPPRLPRPRPRPMQDPRP
shrunken log2 fold change: -0.0947

RRIRQRPPRLPRPRPRPYDHPRP
shrunken log2 fold change: -0.534

RRIRGRPPRLPRPRPRPMPLPRP
shrunken log2 fold change: 0.606

RRIRMRPPRLPRPRPRPWLLPRP
shrunken log2 fold change: -0.0297

RRIRARPPRLPRPRPRPTCAPRP
shrunken log2 fold change: 0.863

RRIRLRPPRLPRPRPRPSYVPRP
shrunken log2 fold change: -0.13

RRIRIRPPRLPRPRPRPSFEPRP
shrunken log2 fold change: -0.507

RRIRVRPPRLPRPRPRPKEVPRP
shrunken log2 fold change: 0.177

RRIRTRPPRLPRPRPRPSKYPRP
shrunken log2 fold change: 0.557

RRIRPRPPRLPRPRPRPHEIPRP
shrunken log2 fold change: -0.192

RRIRARPPRLPRPRPRPACQPRP
shrunken log2 fold change: 0.486

RRIRWRPPRLPRPRPRPACDPRP
shrunken log2 fold change: 0.788

RRIRMRPPRLPRPRPRPMHYPRP
shrunken log2 fold change: -0.221

RRIRKRPPRLPRPRPRPGSDPRP
shrunken log2 fold change: 0.737

RRIRRRPPRLPRPRPRPLGRPRP
shrunken log2 fold change: -0.143

RRIRKRPPRLPRPRPRPIAPPRP
shrunken log2 fold change: 0.718

RRIRSRPPRLPRPRPRPGFFPRP
shrunken log2 fold change: 0.176

RRIRYRPPRLPRPRPRPDKPPRP
shrunken log2 fold change: -0.0375

RRIRFRPPRLPRPRPRPCQEPRP
shrunken log2 fold change: 0.176

RRIRQRPPRLPRPRPRPNMEPRP
shrunken log2 fold change: -0.404

RRIRPRPPRLPRPRPRPPTDPRP
shrunken log2 fold change: 0.184

RRIRWRPPRLPRPRPRPVPKPRP
shrunken log2 fold change: 0.524

RRIRARPPRLPRPRPRPDWVPRP
shrunken log2 fold change: 0.517

RRIRERPPRLPRPRPRPNQAPRP
shrunken log2 fold change: -0.0316

RRIRSRPPRLPRPRPRPWVVPRP
shrunken log2 fold change: -0.00703

RRIRTRPPRLPRPRPRPQYSPRP
shrunken log2 fold change: -0.056

RRIRARPPRLPRPRPRPPMEPRP
shrunken log2 fold change: 0.587

RRIRRRPPRLPRPRPRPAEEPRP
shrunken log2 fold change: 0.618

RRIRCRPPRLPRPRPRPMKKPRP
shrunken log2 fold change: 0.0602

RRIRDRPPRLPRPRPRPFCKPRP
shrunken log2 fold change: -0.164

RRIRWRPPRLPRPRPRPDKVPRP
shrunken log2 fold change: 0.0749

RRIRSRPPRLPRPRPRPHDHPRP
shrunken log2 fold change: -0.23

RRIRKRPPRLPRPRPRPMVKPRP
shrunken log2 fold change: 0.427

RRIRIRPPRLPRPRPRPRDIPRP
shrunken log2 fold change: -0.203

RRIRKRPPRLPRPRPRPCRIPRP
shrunken log2 fold change: -0.0405

RRIRRRPPRLPRPRPRPGAQPRP
shrunken log2 fold change: 0.352

RRIRPRPPRLPRPRPRPLSLPRP
shrunken log2 fold change: 0.0584

RRIRMRPPRLPRPRPRPMFFPRP
shrunken log2 fold change: -0.0106

RRIRRRPPRLPRPRPRPAFAPRP
shrunken log2 fold change: 0.456

RRIRARPPRLPRPRPRPWHTPRP
shrunken log2 fold change: -0.219

RRIRGRPPRLPRPRPRPLPNPRP
shrunken log2 fold change: 0.781

RRIRFRPPRLPRPRPRPFVDPRP
shrunken log2 fold change: -0.121

RRIRGRPPRLPRPRPRPIDLPRP
shrunken log2 fold change: 0.00416

RRIRFRPPRLPRPRPRPWTSPRP
shrunken log2 fold change: -0.0445

RRIRFRPPRLPRPRPRPNQFPRP
shrunken log2 fold change: -0.0599

RRIRGRPPRLPRPRPRPTNYPRP
shrunken log2 fold change: 1.07

RRIRKRPPRLPRPRPRPYTFPRP
shrunken log2 fold change: -0.264

RRIRARPPRLPRPRPRPEYQPRP
shrunken log2 fold change: 0.118

RRIRQRPPRLPRPRPRPCLEPRP
shrunken log2 fold change: 0.0782

RRIRDRPPRLPRPRPRPNYMPRP
shrunken log2 fold change: -0.216

RRIRCRPPRLPRPRPRPQESPRP
shrunken log2 fold change: 0.192

RRIRGRPPRLPRPRPRPDFLPRP
shrunken log2 fold change: 0.318

RRIRYRPPRLPRPRPRPEHNPRP
shrunken log2 fold change: -0.0212

RRIRLRPPRLPRPRPRPAGKPRP
shrunken log2 fold change: -0.132

RRIRHRPPRLPRPRPRPQIYPRP
shrunken log2 fold change: -0.137

RRIRSRPPRLPRPRPRPHKMPRP
shrunken log2 fold change: -0.156

RRIRGRPPRLPRPRPRPYWYPRP
shrunken log2 fold change: -0.211

RRIRERPPRLPRPRPRPFSLPRP
shrunken log2 fold change: -0.2

RRIRIRPPRLPRPRPRPGHRPRP
shrunken log2 fold change: 0.0543

RRIRQRPPRLPRPRPRPYTEPRP
shrunken log2 fold change: -0.00136

RRIRVRPPRLPRPRPRPINFPRP
shrunken log2 fold change: -0.458

RRIRGRPPRLPRPRPRPVNEPRP
shrunken log2 fold change: 0.517

RRIRVRPPRLPRPRPRPRILPRP
shrunken log2 fold change: -0.412

RRIRTRPPRLPRPRPRPDSAPRP
shrunken log2 fold change: 0.0773

RRIRGRPPRLPRPRPRPLEDPRP
shrunken log2 fold change: 0.205

RRIRKRPPRLPRPRPRPIREPRP
shrunken log2 fold change: 0.057

RRIRKRPPRLPRPRPRPTISPRP
shrunken log2 fold change: -0.279

RRIRRRPPRLPRPRPRPPMYPRP
shrunken log2 fold change: 0.0631

RRIRCRPPRLPRPRPRPARKPRP
shrunken log2 fold change: 0.21

RRIRERPPRLPRPRPRPIVRPRP
shrunken log2 fold change: -0.0604

RRIRTRPPRLPRPRPRPVFWPRP
shrunken log2 fold change: 0.386

RRIRNRPPRLPRPRPRPIFFPRP
shrunken log2 fold change: 0.0887

RRIRYRPPRLPRPRPRPAYFPRP
shrunken log2 fold change: -0.782

RRIRGRPPRLPRPRPRPIPSPRP
shrunken log2 fold change: 0.485

RRIRFRPPRLPRPRPRPVADPRP
shrunken log2 fold change: -0.00475

RRIRMRPPRLPRPRPRPFMVPRP
shrunken log2 fold change: -0.161

RRIRWRPPRLPRPRPRPDSLPRP
shrunken log2 fold change: -0.12

RRIRHRPPRLPRPRPRPINNPRP
shrunken log2 fold change: -0.7

RRIRGRPPRLPRPRPRPSWVPRP
shrunken log2 fold change: 0.0128

RRIRARPPRLPRPRPRPGKIPRP
shrunken log2 fold change: 0.0623

RRIRHRPPRLPRPRPRPVQGPRP
shrunken log2 fold change: 0.207

RRIRSRPPRLPRPRPRPPVTPRP
shrunken log2 fold change: -0.0798

RRIRRRPPRLPRPRPRPIEWPRP
shrunken log2 fold change: 0.375

RRIRKRPPRLPRPRPRPNWRPRP
shrunken log2 fold change: 1.32

RRIRARPPRLPRPRPRPPTYPRP
shrunken log2 fold change: 0.0408

RRIRMRPPRLPRPRPRPRCTPRP
shrunken log2 fold change: 0.6

RRIRNRPPRLPRPRPRPQIKPRP
shrunken log2 fold change: -0.479
